Experimental data taken from the RNAGym collection of RNA variant scans (doi:10.1073/pnas.2313332121).
Fewer inactive variants are shown than the library holds.

B1: TPR 5TU (parent)
chain: GGAUCUUCUCGAUCUAACAAAAAAGACAAAUCUGCCACAAAGCUUGAGAGCAUCUUCGGAUGCAGAGGCGGCAGCCUUCGGUGGCGCGAUAGCGCCAACGUUCUCAACUAUGACACGCAAAACGCGUGCUCCGUUGAAUGGAGUUUAUCAUG

Variants of: B1
Test: polymerase ribozyme fitness, log enrichment relative to wild type (log ratio); higher = more active; in vitro selection for triplet polymerase activity
In short: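 To select mutant libraries of each subunit of a heterodimeric triplet polymerase ribozyme, built by PCR and transcribed, each was annealed with a biotinylated primer, partner subunit and triplets, then incubated frozen at −7 °C. Extended constructs were gel-excised, captured on streptavidin beads and amplified by RT-PCR, in one round carried out in triplicate. Illumina sequencing of input and output libraries kept genotypes with ≥10 input reads and ≥1 read per output. Fitness is the base-2 logarithm of genotype enrichment relative to wild-type enrichment, from inverse-variance-weighted replicate averages.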

| Variant | polymerase ribozyme fitness (log ratio) |
| --- | --- |
| U7C C38U C95A A119U | -2.61 |
| U7C G92C | -2.73 |
| U6G U53C G92C U144C | -1.5 |
| U7G C10A C51A U82G G88A C108U U111C G133U G143C | ≤ -4.2 |
| U7A U9A A21U U55A G59A C99G C129U A147C | ≤ -4.2 |
| U6G G50C | -3.07 |
| U6G C8A G48A U56G C75U G80C G83U G92U C93A C99U G100U | ≤ -4.2 |
| U6G C57A C85A C95U | -0.326 |
| U6G A26C G136A A142U U146A | ≤ -4.2 |
| U6G A40U A49U A66C G94U A98U U134C G140A | ≤ -4.2 |
| U7G A26C U31G U55A G86C G126U | ≤ -4.2 |
| U6G G100A A107U A113U | ≤ -4.2 |
| U7G A30C C32G C51U U144A | ≤ -4.2 |
| U6G A47C C87A | ≤ -4.2 |
| U6G C63U G83U A98U A122U | -0.875 |
| U7A C14A A23C C75G C85U | ≤ -4.2 |
| U6G C8G A47C G59U A91C C96G C132G G133A | ≤ -4.2 |
| U7A C93G A113U A138C | ≤ -4.2 |
| U7A A24C G50U A52U C87G | ≤ -4.2 |
| U7C A12G C96U | -2.17 |
| C8A A17U A23U A26G C27G U90G G92A A115C | ≤ -4.2 |
| U7G A23C A28U C38G A121G | ≤ -4.2 |
| U6G C99G G141C | -2.05 |
| U7C G50U G140U | ≤ -4.2 |

| Variant | polymerase ribozyme fitness (log ratio) |
| --- | --- |
| U7G C63A C96G | ≤ -4.2 |
| U6G G128U | -3.77 |
| U7G G48C G84A | -3.94 |
| U7G C76A C85G C95A A121U | ≤ -4.2 |
| U6G A22C C35A G58C G74U C76U U78C G133U U151C | ≤ -4.2 |
| U7G C10A C75A C87A C125G A138U | ≤ -4.2 |
| C8A A21C | -3.76 |
| U6G G25U G50C G92A | ≤ -4.2 |
| U7G A21C C36U C54U C79G G83A U144A | ≤ -4.2 |
| U6G A28C C76G G92U | ≤ -4.2 |
| U7A G92U | -3.96 |
| U7A A60G C85U U144C | -3.61 |
| U6G A28G G58U C85U | ≤ -4.2 |
| U6G A73U | -0.322 |
| C8A A12U U61A C79U G84U C85G C118U A119G C129A G143C U148G | ≤ -4.2 |
| U6G G86C U135G | ≤ -4.2 |
| U6G A24U A119U G136U | -3.74 |
| C8A A12U C35G G92U C103G | -3.99 |
| U7A G25A G50U G84U | ≤ -4.2 |
| U6G C27U A49C C79G A89U C93U C132A | ≤ -4.2 |
| U7A A20U U31G C116U | -3.58 |
| U6G G141A | 0.243 |
| C8A A22U C79G G81U C95U A107U C108U | ≤ -4.2 |
| U6G G65U G71C G94A C103G A122G | ≤ -4.2 |

| Variant | polymerase ribozyme fitness (log ratio) |
| --- | --- |
| U6G G68A | -3.62 |
| U7C C18G G94A G117C | -3.67 |
| U7C G11C G59A G71C C76U G84U A138C | ≤ -4.2 |
| U7G G11C A29C U82G C95U U109G | ≤ -4.2 |
| U6G C85A C125G | -0.955 |
| U6G | 0.0167 |
| U6G C69U G84A A106C | -2.47 |
| U7C A24U C96U A107G C125G U144C U151C | -4.07 |
| U6G U55G G92A | -3.71 |
| U7G A40G A52C G65U A73G U82A C93G U134A U148G | ≤ -4.2 |
| U7C A73G U82A G136C | ≤ -4.2 |
| U6G U78A G84U A91C C108A A121C | ≤ -4.2 |
| U6G A23U A73G C76A A98G C105G A113C A119G | ≤ -4.2 |
| U6G A20U A73U U134C U145G | -3.22 |
| U7G G92U | -2.39 |
| U7C U56A A91U A106U C132U | -3.92 |
| U6G U7C U55A U135A | -4.01 |
| U7G A23G U53A C99G C116A C125G A137C | ≤ -4.2 |
| U6C U56C A89C A121U | -2.59 |
| U7C A23G U82G G83A U146G A150G G152C | ≤ -4.2 |
| U7C A20C A89G C96A U111C C118U | ≤ -4.2 |
| U6G A16C A22U C51U C76U C85A C118U | -3.97 |
| U7G G83A A91U C131U | -3.4 |
| C8A A12G C85U C103G G124U C129A | ≤ -4.2 |

| Variant | polymerase ribozyme fitness (log ratio) |
| --- | --- |
| C8A A16G A29U A47U G71U C93A A106G G133U C149U | ≤ -4.2 |
| U6C U31G G50C C69G G94C A119U U151A | ≤ -4.2 |
| U7G C18U A19U A28U C85A C87U A97U | ≤ -4.2 |
| U7A U111G | -4.19 |
| U6G A12U A28C G65U U127G | ≤ -4.2 |
| U7C C35U | -2.29 |
| U7A U44A | ≤ -4.2 |
| U6G A41U U45C | -2.17 |
| U6G A21U G94A U104G U127A | ≤ -4.2 |
| U7C A23U C87A A89G C116U C125U | ≤ -4.2 |
| U6G C27A U33C C85A G88A U134C | ≤ -4.2 |
| U6G C75U | 0.374 |
| U7C A17G A23U A52C C76G C85U C93A G128U G152C | ≤ -4.2 |
| U7A A28U A40U U55A C57A C76U U78G C96G C123G | ≤ -4.2 |
| U6C U61A A73C C85G | ≤ -4.2 |
| U7C C18U U61C C69A C93A C114U | ≤ -4.2 |
| U7G A30G C32A A39U A60G C96U G126U G140U | -3.86 |
| U7C A21C A24C G62C C76A G133C | ≤ -4.2 |
| U7G C38A G83A G84U U148C | ≤ -4.2 |
| U7G U53A A147G | ≤ -4.2 |
| C8A A19G C57G G88A U146G | ≤ -4.2 |
| U7C A17G A119U | -3.03 |
| U7C U55A C63U G88U A107U U145A | ≤ -4.2 |
| C8A A22C C27U U44C C51U C79A C93G C95G C105G | ≤ -4.2 |

| Variant | polymerase ribozyme fitness (log ratio) |
| --- | --- |
| U6C U55G C132A A138G | ≤ -4.2 |
| U7C C38A C51G G83U G84A | ≤ -4.2 |
| U7G A23C A24U C54G | ≤ -4.2 |
| U7C A12C C87A C105A C116G A138U G152U | ≤ -4.2 |
| U6G G48C A52G C96A A121U G140A | ≤ -4.2 |
| U6G G50U C95U | 0.0133 |
| C8A A17G A73U U78G C87U | ≤ -4.2 |
| U6G A60C C85A C96U G124U | -4.11 |
| U7A A17C A142C | -3.31 |
| U7G A40U C43G A91U | ≤ -4.2 |
| U6G A40U U56A C93U A106C | -1.92 |
| U6G U31C G50A A147C | -2.65 |
| U7G C63G C76G C93G A97U C99G A106U | ≤ -4.2 |
| U7G U53A U56G G84U U148C | ≤ -4.2 |
| U7G A19U A52U U56A A91G C108A | ≤ -4.2 |
| U6G A122C | -0.304 |
| U6G C54G A73U U102A A106G U127G C132G U135G | ≤ -4.2 |
| U6G C51U G84A U146G | -1.28 |
| U6G A120G | -0.399 |
| U6G G46A U56C C76G G81C A91C A106G A137U U144C U151A | ≤ -4.2 |
| U7G U130A | -4.18 |
| U6G G34C A52U A89G C93A A107U A115U A150C | ≤ -4.2 |
| U7A G83A A121G U145G U148G | ≤ -4.2 |
| U6G C14U | -1.09 |

| Variant | polymerase ribozyme fitness (log ratio) |
| --- | --- |
| U7C C27A C69G G86A G100C | ≤ -4.2 |
| U7G A47C A49U G86U C99U | ≤ -4.2 |
| U7G C54U G92U | -2.21 |
| U7A A26C U31A G34C G70U U78G G117A C118U A119C | ≤ -4.2 |
| C8A A17U A26U G48U G68U C93G C132G G141C U148G | ≤ -4.2 |
| U6G A41C G42A U56C C85A C99A | ≤ -4.2 |
| U6G A49C C51U G88A A107U A142G | ≤ -4.2 |
| U7G U82A G117U | -3.65 |
| U7G A22G C32U G59C U77G C114U U145A | ≤ -4.2 |
| U6G G81C A91G | -2.46 |
| U7A C14U U31A C57G U61A A89U U90C C99A A115U A122C | ≤ -4.2 |
| U7A A23C C36A U56A A91U C132G | -3.78 |
| U6G G83A | -0.0531 |
| U7G A21C C35A A47C C99A C123A | ≤ -4.2 |
| U7A G11A A41G A66C U77C C85U A106C U151A | ≤ -4.2 |
| U7A A22G C72A A122U C131A | ≤ -4.2 |
| U7A U53A U56A | ≤ -4.2 |
| U6G C85U | -0.35 |
| U6G C85A | -1.09 |
| U7G A20U U53A G88U C96A A113U C114U A122U U139A A142U | ≤ -4.2 |
| U6G A22U C85A | -0.601 |
| U7G G50C U56G G94C | ≤ -4.2 |
| U7A A29C C85U C87U G143C A150G | ≤ -4.2 |
| U7A A20C C93G C116G U135G | ≤ -4.2 |

| Variant | polymerase ribozyme fitness (log ratio) |
| --- | --- |
| U7G A47U U55A C57A C63U C95U | -3.6 |
| U6G A39C C85A A98G G126C | -3.91 |
| U7A A28U G46C G50A C95G C103G C129A U144C | ≤ -4.2 |
| U6G C93G | -3.18 |
| U6G C93A | -1.75 |
| U7G C75A G84A G94U A106U A120C | ≤ -4.2 |
| U6G G11A G48U G50U A66G U90A G100U U102A A122C | ≤ -4.2 |
| U7G G42A U44A G68C A91U G117A U135A | ≤ -4.2 |
| U6G C10G G50C U55A G58A C72G C95U C96U U144G U148A | ≤ -4.2 |
| U6G G58C C131A | -2.15 |
| U7G G11U A16G A24C U31G G34U A98G G117C | ≤ -4.2 |
| U7A A49C C103A U139A | ≤ -4.2 |
| U7G G50C G58U C63U C76A G92A C149G | ≤ -4.2 |
| U6G C35U C75A A98G A121U | ≤ -4.2 |
| U6C U31C C57A C96G | -1.1 |
| U7A A26U C27U A41U U55G C93U | ≤ -4.2 |
| U7A A21U G25U U44A A49C C54A C63G C85U G86U C99G | ≤ -4.2 |
| U7A C79G G94C C114A C118G | ≤ -4.2 |
| U7C G46A G65U C76A U77G C79A G94A C96A U135A U144G G152U | ≤ -4.2 |
| U6C U61A C85U A97C A120G | -3.12 |
| U6G A28U | -3.76 |
| U7G G25C A60G C93U C123U | ≤ -4.2 |
| U6G C114A | -3.22 |
